From paper PMC12038006 (Nature Communications, 2025)

Molecular target: T1, Rv1272c from Mycobacterium tuberculosis (Mycobacterium tuberculosis (Mtb) H37Rv, UniProt P9WQJ3 1-631)
T1 construct: also called subunit of Rv1273c/72c; not shown: Flag, C-terminal, kept
T1 sequence: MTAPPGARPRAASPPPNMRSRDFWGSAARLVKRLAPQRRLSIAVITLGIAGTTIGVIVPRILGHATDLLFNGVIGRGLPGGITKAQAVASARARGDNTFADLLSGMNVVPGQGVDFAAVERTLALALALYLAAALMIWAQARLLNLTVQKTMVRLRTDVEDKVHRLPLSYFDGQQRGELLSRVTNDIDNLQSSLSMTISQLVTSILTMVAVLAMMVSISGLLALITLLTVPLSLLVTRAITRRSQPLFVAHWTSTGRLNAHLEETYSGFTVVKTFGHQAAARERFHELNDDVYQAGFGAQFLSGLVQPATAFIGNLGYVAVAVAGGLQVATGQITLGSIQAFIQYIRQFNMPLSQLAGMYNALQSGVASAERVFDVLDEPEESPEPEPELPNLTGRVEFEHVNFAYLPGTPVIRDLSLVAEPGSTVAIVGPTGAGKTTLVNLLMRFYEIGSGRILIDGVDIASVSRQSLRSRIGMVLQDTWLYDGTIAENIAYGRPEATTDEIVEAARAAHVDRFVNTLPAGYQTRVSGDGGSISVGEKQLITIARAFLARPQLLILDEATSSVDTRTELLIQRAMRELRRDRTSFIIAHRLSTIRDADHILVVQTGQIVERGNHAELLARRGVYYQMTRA
Experiment: SEC
Conditions: both partners purified

B1: Rv1273c from Mycobacterium tuberculosis (natural protein)
chain: MLLALLRQHIRPYRRLVAMLMMLQLVSTLASLYLPTVNAAIVDDGVAKGDTATIVRLGAVMLGVTGLQVLCAIGAVYLGSRTGAGFGRDLRSAMFEHIITFSERETARFGAPTLLTRSTNDVRQILFLVQMTATVLVTAPIMCVGGIIMAIHQEAALTWLLLVSVPILAVANYWIISHMLPLFRRMQSLIDGINRVMRDQLSGVRVVRAFTREGYERDKFAQANTALSNAALSAGNWQALMLPVTTLTINASSVALIWFGGLRIDSGQMQVGSLIAFLSYFAQILMAVLMATMTLAVLPRASVCAERITEVLSTPAALGNPDNPKFPTDGVTGVVRLAGATFTYPGADCPVLQDISLTARPGTTTAIVGSTGSGKSTLVSLICRLYDVTAGAVLVDGIDVREYHTERLWSAIGLVPQRSYLFSGTVADNLRYGGGPDQVVTEQEMWEALRVAAADGFVQTDGLQTRVAQGGVNFSGGQRQRLAIARAVIRRPAIYVFDDAFSALDVHTDAKVHASLRQVSGDATIIVVTQRISNAAQADQVIVVDNGKIVGTGTHETLLADCPTYAEFAASQSLSATVGGVG
notes: also called subunit of Rv1273c/72c
- stoichiometry N: 1
